The supplement of paper PMC10567573
± gives the standard deviation.

Test: protein stability index of a GFP-peptide fusion (GPS, HEK-293T) (PSI 1-6); higher = more stable
[1] = treatment: DMSO, c terminus: a fixed tail appended
[2] = treatment: MLN4924 1 uM, 8 h, c terminus: a fixed tail appended
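Note: 24-mer peptide tiles fused after GFP, lentivirally expressed, FACS-sorted into six equal bins by GFP/DsRed ratio, decoded by Illumina sequencing, PSI is the read-weighted mean bin number.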

| Sequence | protein stability index [1] | protein stability index [2] | protein stability index (treatment: DMSO, c terminus: native) | protein stability index (treatment: MLN4924 1 uM, 8 h, c terminus: native) |
| --- | --- | --- | --- | --- |
| HQYWPAERSARYQYFVVDPMAEYN [PTPRD] | 2.4 ± 0.19 | 2.51 ± 0.32 |  |  |
| QGMIQLALSGASQPGPSGAPAQRA [RETREG3] | 4.26 ± 0.1 | 4.32 ± 0.22 |  |  |
| NSLQSYQLSPNKHFSLRVQSRANG [PCDHGA10] | 3.41 ± 0.077 | 3.64 ± 0.42 |  |  |
| HLKRHFMFRNHLCLVFELLSYNLY [DYRK1B] | 3.34 ± 0.23 | 3.29 ± 0.88 |  |  |
| FLGSSFSPVRCGGPGDASPRGCGA [WEE1] | 2.27 ± 0.34 | 2.61 ± 0.48 |  |  |
| PPETKHQALSGTPKKGPAPSLSPG [TSPAN10] | 5.31 ± 0.31 | 5.31 ± 0.13 |  |  |
| LRFTSGLVVALDVDATLEHVQDPQ [INTS4] | 2.09 ± 0.25 | 2.43 ± 0.22 |  |  |
| ICELVMALDYLQNQRIIHRDMKPD [STK32A] | 2.62 ± 0.64 | 2.44 ± 0.5 |  |  |
| LALALKKCKPSLPAEAEGAAQELE [TMEM120A] | 4.39 ± 0.18 | 4.46 ± 0.19 |  |  |
| LHSLPGVSLSLENRELWKEFSSVG [TBX6] | 2.73 ± 0.19 | 2.83 ± 0.37 |  |  |
| AANSYDLAIKAITSSAKVDMTFEE [FKBP8] | 4.28 ± 0.24 | 4.36 ± 0.22 |  |  |
| FNIGLPDNIVNCNEFLCTLQKKLD [ZNF277] | 2.48 ± 0.32 | 2.51 ± 0.35 |  |  |
| GSLYVFGGTTGYIYSTDLHKLDLN [KLHDC10] | 2.4 ± 0.5 | 2.66 ± 0.46 |  |  |
| ISPRGAGYTFGQDISETFNHANGL [PPP2CA] | 3.17 ± 0.26 | 3.23 ± 0.41 |  |  |
| QPSFEPTKNKELTDEFRELRATVE [FADS1] | 4.98 ± 0.19 | 4.86 ± 0.35 |  |  |
| KQQKDPSEEAAVLQYASLVGQKCS [ATE1] | 4.84 ± 0.23 | 4.77 ± 0.2 |  |  |
| ECGKTFIYNSHLVVHQRVHSGEKP [ZNF232] | 2.96 ± 0.37 | 2.9 ± 0.49 |  |  |
| EYSKFCRMSYQDPAQLSCLPYLEH [NFE2L1] | 2.52 ± 0.56 | 1.89 ± 0.42 |  |  |
| FRSGALDLDSCSRDGALLGCSLTA [MYORG] | 2.58 ± 0.12 | 2.34 ± 0.32 |  |  |
| SQSLALKEQNNLKQLEFGLKEAPV [ZNF8] | 4.7 ± 0.24 | 4.44 ± 0.16 |  |  |
| SAVSTPSPVTRTRSLSACNKRVGM [DLC1] | 4.36 ± 0.19 | 4.38 ± 0.16 |  |  |
| ESMYGDFQEAMTHLQHKLICTRKP [TENT5D] | 3.54 ± 0.17 | 3.58 ± 0.38 |  |  |
| PVPVIVSNFNYFYHRETEGEEQAQ [KCNA1] | 3.62 ± 0.25 | 3.81 ± 0.4 |  |  |

| Sequence | protein stability index [1] | protein stability index [2] | protein stability index (treatment: DMSO, c terminus: native) | protein stability index (treatment: MLN4924 1 uM, 8 h, c terminus: native) |
| --- | --- | --- | --- | --- |
| YLEKYYNLKNDGRQVEKRRNSGPV [MMP1] | 2.68 ± 0.57 | 3.27 ± 0.4 |  |  |
| GDKNEEQVLNAIEAYTEHRPEITS [ZER1] | 5.33 ± 0.2 | 5.16 ± 0.22 |  |  |
| KEAGLSQSHDDLSNATATPSVRKK [C2CD2L] | 5.44 ± 0.19 | 5.53 ± 0.28 |  |  |
| CCRACSVSFSTGAGGWSNHHFCVI [BET1L] | 2.42 ± 0.26 | 2.35 ± 0.33 |  |  |
| EMLSASRYPTISMVKPLLHMLLNT [ZBED1] | 2.6 ± 0.81 | 3.02 ± 0.79 |  |  |
| LVQVTLLDTVELATYCVRTFALYK [PTPRD] | 3.1 ± 0.49 | 2.97 ± 0.81 |  |  |
| ALKRQLPFRGDEGIFEESFIEERR [SNX12] | 3.8 ± 0.16 | 4.15 ± 0.31 |  |  |
| DLVDSLKLAVFMWLMTYVGAVFNG [RTN3] | 3.02 ± 0.59 | 3.2 ± 0.051 |  |  |
| PISQEKIESERALISQCGKPVVNV [DUSP5] | 4.04 ± 0.55 | 3.91 ± 0.23 |  |  |
| GNLEVGEPQSEPVRVLDMVAKLES [FBXO34] | 5.01 ± 0.34 | 4.87 ± 0.2 |  |  |
| AQNREPESVEQLESRIVEQENAIQ [SNX8] | 5.54 ± 0.063 | 5.52 ± 0.19 |  |  |
| RVTSLANLISPVRNGAVRRFGQTI [NET1] | 2.55 ± 0.14 | 2.63 ± 0.33 |  |  |
| SQVALKIIRNVGKYREAARLEINV [CLK3] | 2.67 ± 0.51 | 2.62 ± 0.54 |  |  |
| KSPLHMTAVHGRFTRSQTLIQNGG [ANKRD44] | 3.28 ± 0.24 | 3.45 ± 0.18 |  |  |
| EEPQTVPEARSRDATPPVSPINME [JUNB] | 5.38 ± 0.29 | 5.46 ± 0.27 |  |  |
| LLPLTELSVCPLEGSREHAFQITG [PLEKHN1] | 2.88 ± 0.13 | 2.83 ± 0.24 |  |  |
| ECAMETTEEQTRQERQGPAKPEVL [NECAB1] | 5.57 ± 0.33 | 5.6 ± 0.23 |  |  |
| LCEEFRNRNQRIVQLIQDTRIHIL [CPN1] | 2.25 ± 0.13 | 2.4 ± 0.26 |  |  |
| GGPADLAGLEDEDVIIEVNGVNVL [PDZK1] |  | 4.46 ± 0.32 |  |  |
| PDEEPMHYGNIMYDRRVIRGNTYA [RSPH3] | 3.5 ± 0.27 | 3.41 ± 0.33 |  |  |
| GSDKQQQQQHIECVVCGDKSSGKH [NR2F2] | 4.93 ± 0.35 | 5.07 ± 0.18 |  |  |
| KRFQTLISKMEPLEIPVETITSEV [CRY1] | 3.27 ± 0.25 | 3.5 ± 0.39 |  |  |
| TQRLWDFTQSGPIVSRATGRCLEV [GALNT9] | 2.81 ± 0.43 | 3.02 ± 0.22 |  |  |

| Sequence | protein stability index [1] | protein stability index [2] | protein stability index (treatment: DMSO, c terminus: native) | protein stability index (treatment: MLN4924 1 uM, 8 h, c terminus: native) |
| --- | --- | --- | --- | --- |
| GFKHRLWVYSGRRGVHCWVCDESV [PRIM1] | 2.81 ± 1.4 | 2.31 ± 0.59 |  |  |
| RGIDSSSVKLRGSSLFMDTEKSGK [WEE1] | 4.91 ± 0.57 | 4.99 ± 0.25 |  |  |
| EEEKLKAEEIRIKGKYNISSEDYR [KCNK9] | 5.21 ± 0.19 | 5.29 ± 0.13 |  |  |
| VTKMFQKIQDLIDDKDALVFVLID [TRIP13] | 2.72 ± 0.63 | 2.47 ± 0.17 |  |  |
| RHKQPTLLMVRASRRSGKTSAVLK [C6orf223] | 3.29 ± 0.26 | 3.45 ± 0.24 |  |  |
| GMLAPAAGPAFDSDPEISDVDEDE [PPFIA4] | 5.35 ± 0.73 | 5.54 ± 0.24 |  |  |
| GGQEEASQEAGLPAGAGPSPTFPA [SEPHS2] | 5.56 ± 0.1 | 5.25 ± 0.23 |  |  |
| RSIFGNAVSRELIEIGCEDKTLAF [MLH1] |  | 2.97 ± 0.41 |  |  |
| VHVISLHIWELSSIKNSLKVAAIS [PTGFR] | 2.86 ± 0.46 | 3.07 ± 0.32 |  |  |
| EIRRKEKEAVLAMEKKSKPKNSVW [RIT1] | 4.12 ± 0.17 | 4.29 ± 0.38 |  |  |
| RLDGCIYAIKRSKKPLAGSVDEQN [WEE1] | 3.54 ± 0.28 | 3.73 ± 0.22 |  |  |
| PMVRKRSVSNSTQTSSSSSQSETS [DLC1] | 5.26 ± 0.21 | 5.3 ± 0.33 |  |  |
| MAAMFNGNYMEAKSVLIPVYGVSK [RHOBTB3] | 2.27 ± 0.35 | 2.12 ± 0.33 |  |  |
| RDLALVSRDGMNIVLNKINQILME [INTS3] | 2.58 ± 0.28 | 2.69 ± 0.67 |  |  |
| KGFIQKGNLNIHQRTHTGEKPYGC [ZNF649] | 3.67 ± 0.14 | 3.68 ± 0.2 |  |  |
| TNDVETARCTAGTLHNLSHHREGL [CTNNB1] | 3.89 ± 0.19 | 4.07 ± 0.18 |  |  |
| RFTTSKLQSFEDLASISTYGFRGE [MLH1] | 3.24 ± 0.47 | 3.12 ± 0.36 |  |  |
| EGELGEYRQKLLMFLEISSYYDPG [VPS39] | 2.19 ± 0.22 | 2.18 ± 0.28 |  |  |
| NCLGIRAFADTHSCRELLRIADKF [KLHL20] | 2.3 ± 0.36 | 2.2 ± 0.18 |  |  |
| KHKRQMQDPQLHSPFSGSLHAPPA [VENTX] | 3.98 ± 0.28 | 3.83 ± 0.25 |  |  |
| NILVTSGGTVKLADFGLARIYSYQ [CDK4] | 2.45 ± 0.81 | 2.13 ± 0.37 |  |  |
| YTTEFHELEKIGSGEFGSVFKCVK [WEE1] | 2.49 ± 0.85 | 3 ± 0.47 |  |  |
| ATDPFVAFHINKGLVKKYMNSLLI [FADS1] | 2.46 ± 0.59 | 2.64 ± 0.43 |  |  |

| Sequence | protein stability index [1] | protein stability index [2] | protein stability index (treatment: DMSO, c terminus: native) | protein stability index (treatment: MLN4924 1 uM, 8 h, c terminus: native) |
| --- | --- | --- | --- | --- |
| HASSYISPEKEEQYIAQFTSQFLS [PRAME] | 3.06 ± 0.44 | 3.31 ± 0.27 |  |  |
| RNGSERVVTSAREHIYDLRSLENY [CLINT1] | 3.5 ± 0.16 | 3.81 ± 0.25 |  |  |
| RGRHEQSPTSRPRKVSSLPPRSC [C22orf15] |  |  | 3.06 ± 0.81 | 3.5 ± 0.85 |
| SWMCTRSGNMLGRHFFTSWASCLQ [WDFY1] | 1.86 ± 0.32 | 2.33 ± 0.22 |  |  |
| RARGWAAAARAAQRRRRVENAGGS [RSAD1] | 4.48 ± 0.19 | 4.77 ± 0.17 |  |  |
| KVLILRNHGLVSVGESVEEAFYYI [ADD1] | 2.63 ± 0.53 | 2.72 ± 0.67 |  |  |
| HSTTPSGPGDEVARGIAGEKFDIV [ARFIP2] | 4.75 ± 0.34 | 4.64 ± 0.15 |  |  |
| TVLAVLEDSSRDIREALHELLCCT [INTS4] | 2.43 ± 0.54 | 2.29 ± 0.26 |  |  |
| LSLYQLSLERGTALFAQVQRGALP [RSAD1] | 2.23 ± 0.36 | 2.32 ± 0.44 |  |  |
| SFPLWYEEALKDEEERAQDRIATT [MAGEA10] | 4.71 ± 0.19 | 4.5 ± 0.27 |  |  |
| KRIAHFDLKPENIMLLDKNVPNPR [DAPK3] | 3.68 ± 0.44 | 3.25 ± 0.77 |  |  |
| SDAIRVVNAVLTQIDQIKRHSNVV [TRIP13] | 2.33 ± 0.2 | 2.35 ± 0.21 |  |  |
| NDLWPTMENLLQATKSHVDKVIMK [DYNC2LI1] | 3.23 ± 0.25 | 3.31 ± 0.32 |  |  |
| RHGGLSLVQTTDFFYPLVEDPYMM [SEPHS2] | 2.3 ± 0.25 | 2.24 ± 0.28 |  |  |
| RCHRGYTLDPNGKTCSRVDHCAQQ [MATN2] | 3.68 ± 0.28 | 3.22 ± 0.34 |  |  |
| EVELAYQEAMFNMATLNRTAAGLM [SEPHS2] | 2.42 ± 0.46 | 2.56 ± 0.68 |  |  |
| ILHTAWHPSENIIAVAATNNLYIF [PPP2R2B] | 3.17 ± 0.04 |  |  |  |
| KTIDLGAAAHYTGDKASPDQNAST [CLINT1] | 5.26 ± 0.31 | 5.41 ± 0.49 |  |  |
| QENAIQTMELRNYFSLYCLHQETQ [SNX8] | 2.58 ± 0.31 | 2.52 ± 0.4 |  |  |
| LELLDKIERSKIVSTMRCKTRQKS [PPEF2] | 3.54 ± 0.43 | 3.73 ± 0.074 |  |  |
| RNPGPGRHRLITQVYLSHTAWTEA [INTS4] | 2 ± 0.23 | 2.29 ± 0.35 |  |  |
